This test addresses H2A.Z-H2B (Saccharomyces cerevisiae, UniProt Q12692). As to the kind of experiment: relaxation dispersion NMR.

B1: Chz1 (protein)
chain: SDEAKEKRELESQKESSHNKSEKSVEPKPKRRRRRNYDDYDAEVAKEETKAKNGLTKSENNGTVEDSESDMDDAKLDALMGNEGEEEEDDLAEIDTSNIITSGRRTRGKVIDYKKTAEELDKKEPSTGSKDDVGYGEKEEDDEDEEDDDFKE
As a reminder, the Kd is the free concentration of one partner at which half of the binding sites on the other are occupied at equilibrium, for simple one-to-one binding. High values mean weaker binding, low ones tighter binding. For B1, the dissociation constant (Kd) was ~200 nM.

These data come from PMC2768378 (2009).
